Reference: patent publication US20240409638A1 (AVACTA LIFE SCIENCES, published 2024)

Tests used:
[1] = target: T1, PD-L1 on cells (NCI-H441 cells; aAPC PD-L1/CHO-K1 cells, Promega) (human, UniProt Q9NZQ7 19-290); assay: cell-based or functional assay
[2] = target: T1, PD-L1 on cells (NCI-H441 cells; aAPC …); assay: cell-based or functional assay; remark: listed apart in the source
[3] = target: T2, human serum albumin (HSA) (human, UniProt P02768 25-609); assay: SPR, Biacore, HSA amine-coupled on CM5; E. coli-produced format
T2 construct: The assays used bought HSA (Sigma #A37812 in the SPR work); also called HuSA
T2 sequence (P02768 25-609): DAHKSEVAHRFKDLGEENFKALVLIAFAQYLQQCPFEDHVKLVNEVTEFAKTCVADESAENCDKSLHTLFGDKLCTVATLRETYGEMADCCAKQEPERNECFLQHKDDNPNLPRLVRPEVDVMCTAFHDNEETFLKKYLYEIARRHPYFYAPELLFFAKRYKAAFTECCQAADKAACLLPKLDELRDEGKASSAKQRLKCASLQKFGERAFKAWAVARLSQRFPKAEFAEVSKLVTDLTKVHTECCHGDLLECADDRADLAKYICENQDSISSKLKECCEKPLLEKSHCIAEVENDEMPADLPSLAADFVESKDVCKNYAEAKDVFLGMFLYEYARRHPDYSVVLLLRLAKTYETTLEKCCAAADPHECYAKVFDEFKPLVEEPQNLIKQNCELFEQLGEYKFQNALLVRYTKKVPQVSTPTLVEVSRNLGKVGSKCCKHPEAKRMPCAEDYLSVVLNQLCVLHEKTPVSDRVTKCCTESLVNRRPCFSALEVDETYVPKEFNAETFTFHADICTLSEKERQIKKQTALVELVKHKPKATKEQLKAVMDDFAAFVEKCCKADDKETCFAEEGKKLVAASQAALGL
Protocol: (§1) For the HSA binding kinetic analysis, HSA (Sigma #A37812) was immobilized on a CM5 chip surface using amine coupling in 10 mM sodium acetate (pH 5.0) (Cytvia). […] The chip surface was regenerated with 3 mM NaOH for 20 seconds at a flow rate of 20 μl/min. The kinetic data was blank subtracted and fit to a 1:1 Langmuir binding model (BIAcore evaluation software; Cytiva).

[4] = target: T2, human serum albumin (HSA); assay: HSA binding ELISA: HSA coated, anti-cystatin A detection
[5] = target: T1, PD-L1 on cells (NCI-H441 cells; aAPC …); assay: flow cytometry, % positive cells, NCI-H441 cells (endogenous PD-L1)
Protocol: Lung cancer cell line (NCI-H441 (ATCC), CHO-K1 recombinant cell line overexpressing PD-L1 aAPC/CHO-K1 (Promega J1252)) and a negative cell line (CHO-K1, ATCC) were used to assess AFFIMER® agent binding capacity to PD-L1 by flow cytometry.
Briefly, 50 000 cells were added to each well of a 96-well microplate. After this step and each subsequent step, cells were washed twice with PBS+2 mM EDTA using 350g centrifugation for 3 minutes at 4° C. All steps were performed at 4° C. using assay buffer comprising 5% FBS, 2 mM EDTA and 0.05% sodium azide in PBS unless otherwise stated. Independent AFFIMER® agent dilutions were prepared in duplicate and added to the plates. […] Fixation was performed for 10 minutes at 4° C. with Fixation Buffer (Bio-techne FC004). Cells were resuspended in 100 ul assay buffer prior the acquisition of the data. 5000 events were collected by Flow cytometry (Millipore Guava 12HT). The results were gated on live cells and singlets (SSC-H vs SSC-A). The percentage of cells expressing PD-L1 bound by the AFFIMER® agent (positive cells) was determined by using as negative control (background) where the wells were stained with the AF488 conjugated secondary antibody only without AFFIMER® agent. The average of the duplicate wells was used to calculate EC₅₀ using a four-parameter non-linear regression curve fit using Graphpad Prism software. […]

[6] = target: T3, human PD-L1-Fc (R&D Systems) (human, UniProt Q9NZQ7 19-239); assay: human PD-L1-Fc binding ELISA: huPD-L1-Fc coated, anti-cystatin A detection
T3 construct: Bought reagent; also called huPD-L1-Fc; huPD-L1; not shown: Fc part of the bought fusion
T3 sequence (Q9NZQ7 19-239 limits assumed): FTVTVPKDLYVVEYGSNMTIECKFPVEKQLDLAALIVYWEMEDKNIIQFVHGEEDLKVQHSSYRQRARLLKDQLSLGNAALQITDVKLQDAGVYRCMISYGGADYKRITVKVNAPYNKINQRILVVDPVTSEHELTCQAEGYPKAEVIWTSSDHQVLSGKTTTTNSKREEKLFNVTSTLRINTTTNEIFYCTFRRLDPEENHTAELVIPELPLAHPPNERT

[7] = target: T3, human PD-L1-Fc (R&D Systems); assay: SPR (Biacore 8K): human PD-L1-Fc amine-coupled on a CM5 chip, AFFIMER as analyte
[8] = target: T3, human PD-L1-Fc (R&D Systems); assay: SPR (Biacore) kinetics: human PD-L1-Fc immobilised on a CM5 chip, AFFIMER as analyte
[9] = target: T2, human serum albumin (HSA); assay: SPR (Biacore 8K): HSA amine-coupled on a CM5 chip, AFFIMER as analyte, pH 7.4, 1:1 Langmuir fit
Protocol: as §1

[10] = target: T2, human serum albumin (HSA); assay: SPR (Biacore): immobilized ligand HSA (Sigma # A3782), AFFIMER as analyte, pH 7.0 by the legend
Protocol: as §1

[11] = target: T3, human PD-L1-Fc (R&D Systems); assay: human PD-L1-Fc/HSA bridging ELISA: huPD-L1-Fc coated, AFFIMER titrated with 10 µM HSA, detection with HRP-conjugated anti-HSA antibody (the signal needs PD-L1 and HSA bound at once)
Protocol: After saturation with 5% casein/PBS buffer, the plates were washed and a dilution of AFFIMER® polypeptides or controls was incubated with HSA at a final concentration of 10 μM for 90 minutes. Plates were then washed, and a […] polyclonal antibody, anti-HSA (HRP-conjugated) (Abcam), was added for 90 minutes. After a last washing step, TMB was added for the development of the experiment and the plates were read at 450 nm. The EC₅₀ was then calculated using the interpolated non-linear four-parameters standard curve (FIG. 10).

[12] = target: T3, human PD-L1-Fc (R&D Systems); assay: PD-L1/PD-1 competition ELISA (binding inhibition %): human PD-1-Fc coated, AFFIMER preincubated with huPD-L1-Fc at its EC80, bound PD-L1 detected; blocked ligand: human PD-1-Fc. The table column is headed 'EC50 (nM)'; the text calls the values IC50
Protocol: Plates were washed two times with washing buffer (PBS, Tween 20 0.1%) with a plate washer and saturated with Casein 5% (Sigma) in PBS for 90 minutes at room temperature (25±1° C.). […] Plates were washed 3 times as described previously. […] Plates were washed 3 times as described previously and Streptavidin-HRP was added, and the plates were incubated for 30 minutes at room temperature (25±1° C.). Plates were washed a last time and the substrate (TMB; Pierce Thermo-Scientific) was added to the plate. After 10 minutes, the reaction was stopped using an acidic solution and the plates were read at absorbance 450-630 nm. The IC₅₀ was then calculated using the interpolated non-linear four-parameters standard curve.

T1 sequence (Q9NZQ7 19-290): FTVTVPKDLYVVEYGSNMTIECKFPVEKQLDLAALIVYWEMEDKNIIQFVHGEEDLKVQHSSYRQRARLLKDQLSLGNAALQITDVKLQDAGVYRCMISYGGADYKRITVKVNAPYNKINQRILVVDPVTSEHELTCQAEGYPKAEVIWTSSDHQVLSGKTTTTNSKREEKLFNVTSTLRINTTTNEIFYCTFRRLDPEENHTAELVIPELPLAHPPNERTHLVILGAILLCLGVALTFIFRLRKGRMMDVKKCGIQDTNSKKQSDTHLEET

B1: Clone 80 XT35 (anti-PD-L1 type III AFFIMER® XT in-line fusion dimer XT) (designed binder)
chain: MIPGGLSEAKPATPEIQEIVDKVKPQLEEKTGETYGKLEAVQYKTQVVRRKHFPQWPGTNYYIKVRAGDNKYMHLKVFKSLDLQPREVFQEDLVLTGYQVDKNKDDELTGFAEAAAKEAAAKEAAAKEAAAKEAAAKEAAAKMIPGGLSEAKPATPEIQEIVDKVKPQLEEKTGETYGKLEAVQYKTQVVRRKHFPQWPGTNYYIKVRAGDNKYMHLKVFKSLDLQPREVFQEDLVLTGYQVDKNKDDELTGFAEAAAKEAAAKEAAAKEAAAKEAAAKEAAAKMIPRGLSEAKPATPEIQEIVDKVKPQLEEKTNETYGKLEAVQYKTQVLANFFQRRWPGSTNYYIKVRAGDNKYMHLKVFNGPWKFRNTDRGADRVLTGYQVDKNKDDELTGFHHHHHH
notes: Made in E. coli; Two Clone 80 units are fused to one HSA-41; also called XT35_1; ILF trimer format
- half-maximal concentration of PD-1/PD-L1 blockade (% of inhibition, NFAT-luciferase reporter cells; IC50) [1]: 33.4 nM
- IC50 of PD-1/PD-L1 blockade (% of inhibition, Promega NFAT-luciferase reporter cells) [2]: 131 nM
- Kd [3]: 9 nM
- EC50 [4]: 1.03 nM
- EC50 [5]: 0.41 nM
- EC50 [6]: 0.01 nM
- Kd [7]: 0.06 nM
- koff [7]: 7.12e-05 s⁻¹
- kon [7]: 1.19e+06 M⁻¹ s⁻¹
- Kd [8]: 0.0686 nM
- koff [8]: 6.07e-05 s⁻¹
- kon [8]: 884000 M⁻¹ s⁻¹
- Kd [9]: 6.13 nM
- koff [9]: 0.00589 s⁻¹
- kon [9]: 961000 M⁻¹ s⁻¹
- Kd [10]: 9.09 nM
- koff [10]: 0.00359 s⁻¹
- kon [10]: 395000 M⁻¹ s⁻¹
- EC50 [11]: 0.57 nM
- IC50 [12]: 0.84 nM
